Assay results published in the DeepSol protein solubility set.

Assay: soluble on expression in E. coli; label from the status in PepcDB or PDB records

Soluble on expression in E. coli, not soluble:
MGSDKIHHHHHHMPFLLSGHLSDQSCKAGTLPYKIRIVLILFLCPHMCLTNDEGSAVPATDLAAHQIHILYTDHHGWLYNWLRHKLGNACDAADIAQDTFMRILTRQQPVHLNEPRAYLSTIAHGLVIDHWRRRELERAWLETLASLPEPEAPAPETRLIFLEALIEIDRLLDSLKPRVRTTFLLAQLDGLTCPQIAERLGVSLSTVERYITKALRSCYMLRFEP, MGSDKIHHHHHHMPIDLREFYQASDPSRTLFVNNSSDGKYYIDFSSVRGGDILGKLKQKITFFKPNEPTCTLFTGHIGCGKSTELLRLQAELEKLGFHVVYFESSDDLEMTDVDIADVLLAIARRVSQSLDKIILESPNKFNELLQGAWKVLNSEVTGVKVKVPNVGDFGVTSEKEKLSLSVGIGEITAKMKNDPTLREKLNQYLAPQKTKLLEAINQELLEPAIAKLKQQGKNGLVVIVDNLDRIDNRAKPWGRPQQEYLFVDQGEFLTKLNCHLIYTMPLSLKFSNDYGMLTQRFPEDPKVLPMVPVHWSDGSLHAQGMALMQQMVLARAFPDMTPEERLNKVTEIFDSAASLERLCQMSGGHVRDVLRLLNTWIMEEMSLPLTRDTLEQVIRSRQNEIMLPISEDEWQLLRHVKEKKKVSDDHGYQKLIRSRFVFEYRDCGESWFDVNPVLAEAKELQ, MGSDKIHHHHHHMPIYVYWGEDDFAIAKAVTTLRDRVLDPLWTSFNYTSFPPEDSEAPIQALNQVMTPVFGAGGRLVWLMNTNLLQNCPENVLAELTRTLSVIPENSFLLLTCRNKPDERLKSTKLLKQSATEFREFPLIPPWKTELLIQAVNQAAQTVGVKLTPKSAELLAEAVGNDTRLLYNEMEKLRLYAEDNNRPIEENTVTRLVRNTTQNSLQLAAAIRVGDTAKALTILADLINAAEPELRIIATLIGQFRTWLWVKLMVESGERNPQAIAQAAEIGNPKRIYFLQQEVQSLSLRQLISCLPLLLELEVTVKQGRAEISILQIKIIELCQLCQRI, MGSDKIHHHHHHMPKSKSQKNKLRPRDSKGRFTPLAKAKRTVVSRSRSRSRSASRGARQSRSVGRPMSRRNSVRSISTHTAKSPSLVLVISGSPSPRRRRPSTRRSSSRRSVVRSVSRGSKSRRSSSRGSVYGRTGRSRSSKRSRSRSRPRTRSGSRSSSRSRSGSRRSSRRRSRRRSSSKARGRRASTAKKTPAKRRSRSRSQQKVKRSMSRKG, MGSDKIHHHHHHMPLCPSCEMKFNSWEDLAKHMDLIANTNSDKSHVMWLNRNISMKRMEVNELANALERFFSTPNSLSMWIRTRFIERFYGDNPHPFIVAMQNPTKGVLLGYVIEHQHFLKNWVKVLSSIVFKTDKDDVLQYELENISVEFIGYNGRPAHYELLLRMGEALGMPREKILSTQPLPSTQSAIKTWRKIAESKTWLETMASMHSLELVADRSLVKYGAKLPYFNPEILSSDEYPQAVKDFLREGYEADVSHAGEALEMVEKYTEEMEMKEQVQITVLKSFDAFSKYLLARLERGFEIEPSLLKRVIK, MGSDKIHHHHHHMPNIEKYEIFLDFNGNEYEGVEKIYLNSEEEKLELDSVNLEIRSVKSDGKDTKFELKGEKLVIYGKIERELEIKFKGKASRDSILGIYVAPYDGKGMITTQFEAVYARRFIPCFDHPAMKARFKLSVRVQKGLKVISNMPVERIEEDVDGKVIYRFQETPKMSTYLLYLGIDEFEEISDNSKQPTVILATVPGKSKRGLFAINVARKVIEFYEKYFEIPYQLPKVHLIQVPEFAAGAMENWGAITFRETALLADDSSSISQKFRVAEVVAHELAHQWFGNLVTLKWWDDLWLNESFATFMSYKSIKHLFPQWDSEGHLIYDESIGALEDDSLSTTHPIEAHVKDPHEIEQMFDNISYGKGASILKMIEAYVGEENFRRGVVNYLNSFKFGNAEGKDLWNSISNAAGQSIGEIMADWITKPGYPVIFVNAYGNSIRFSQKRFTLLDSGLNEVYKVPITYEINDKFGTLLLDKESAEIRLDEGLKSIKVNINRTGFYRVLYDSLNLAFSSKLNAYEELGLVNDYWNFLLADLIDAKTYFGVIGRFVYTSNSFVSREITSQLLTLYYLFKKNYGKDFLVNQVKIFRKANDDLGKLAYSTVISALARMDEEFALGLSTLFDQYENIDSNIKEAVAIAYAVTNNDFNTLLEKYKRYTIDEEKNRILSAISSLRDPSIVVKVFSLIFERNIKAQDTRFVISSLLHNPHIREEVCSYLMNNFEEVKKFVNTVYGGPWGLGSIVRSMSFCGVDKPKDIIDFLEKVKFKEIERPIKESEERIKVYSRLKQNLP, MGSDKIHHHHHHMPNTIHQDEGRPIVNSNDHDSPAESRASGVLNLTHLRTLVAVVQEGHLTRAAERLRISQPAASHHLRSLEQQFGLPLFTRTPQGVVPTAAGLQLSEQAARLLASSLELLSTASELRGSASGRIAIGTIEDPSVHAALPSLIKWFHEHYPLIELSIESRNSSSIRQGILTGEINAGFYVSCTNEANLREYEIGQRELVVVAPQSWRERVATATWPELAKLPWVMTTTGSAHSEITAQLFRSHNITIRPALEVNTERLLRAMVSQGVGLGFTRREFAEAEQARGAFFIVPISVHRTTMHFAYARSAETDPLIQILSRGLATVLPVAERLIPSTAKPAEK, MGSDKIHHHHHHMPPAIAPRFIYCRVCDACGFAARRSRFSGHAASGHRAAASAFLRPRMNVTTSDDCIGVLPDHPWAKHFIVLGYRDGAFSTIPNNFFRNWLDEEAQVGTFHIGRCSGLGVGSIAKYDQGLQKLVIGKNVAGGMRLRFLLNGQHEMRTISTSLFSIYGNGLENAPMPQYPDTVIHNDVWIGDEALFLGGSQIESGCVIGARAVIPPNFRTEAYGIYAGSPARLVRFRFTEKVREKLLQLAWWDMPLDWIKRNNHAFLVDLTANEGRALDTLAALQESKDNATGEAGRQTAAATPV, MGSDKIHHHHHHMPQDRPTAAQLWSGEISFFSLDTDLIQSAGYSFDAGVLNQLPQVFPKTMQLLLTEVTAREIVSHLMKSVTQAMGEFRKGSDTLKRSVGIDMDQIDKLFEALSVVSSAEAVFRERVDSYAERCRGEVLPIGGGDMMPRIFERYFAGLPPFGARKDKKAEFPDAMSLLLLEDYARDHGTRGVVASRDEGWSEFAGKSEYLYCVKSLDALIALFEATGEHAKTLADRIASAVEDENSFVRAALLDGFRTHIHESSWNVENVYSGVVPRVEAATCEADVISHVLQSDRTKVWNLEEDKSVWVVELTASLTVEVQIDVTFYVWDAIDREEMELDTQTVRRKTNIEVKAFLTVGGAETEVDPAKWDVGVEIAPGQYEIDVGEVEPEYSGD, MGSDKIHHHHHHMPRIKDGFKGERAIVLPAFLIEELKQDPLGSELYITDIGYYPHAYFHYRKRDTEEVTEFILIYCMEGEGWFELDKHQYAVTANQFFILPEHQAHAYGSNEENPWTIYWIHFNGTKAAFFSAGFDRPKSITPQEDSRIKERLVLFEEIYSSISFGYSKNYMLYATTSLFHFLGSMKFIGEYRDCGSMRNSYRNKDVVQIAIHFMQENLSKTIRLADIAAEVNLSVSYFSNLFEEKTGSSPLRYLTYLRIQEACHYLDFTNLKINQISPLVGYEDSLYFSRLFTKTMGVPPSAYKEKKKG, MGSDKIHHHHHHMPRKTATATKLFVLDTNVLMHDPTSLFRFEEHDVYVPIATLEELDQHKKGMTEVSRNARQASRFLDEIVRKLDSIDEGVPLAPHSHNAATGRLFLQTQAISGDIPVNLPTSKVDNQILGVVLFLSRHHTKRQVILVSKDINMRIKARALGLPAEDYFNDKVLEDTDLLYPGLRELPADFWDTHGKGMESWQANGHTYYRVKGPLVASLLPNEFVFQEGASPLYAKVLKVEGKHAEMVTIRDFGHHKNNVWGITARNREQNFALNVLMDPEIDFVSLLGQAGTGKTLLTLAAGLAQVLDKKIYSEIIMTRVTVPVGEDIGFLPGTEEEKMTPWMGALEDNLDVLNKSDDEGGDWGRAATQDLIRSRIKVKSLNFMRGRTFLNKFLIIDEAQNLTPKQMKTLITRAGPGTKVVCLGNIAQIDTPYLTEGSSGLTYVVDHFKGWPHNGHVTLQRGERSRLADYAAEVL
